# Reference: patent US6994974 (TRUSTEES OF COLUMBIA UNIVERSITY IN THE CITY OF NEW YORK, dated 2006)
# B1: TrcHis-chloramphenicol acetyltransferase (CAT) fusion protein (other)
# chain: MEKKITGYTTVDISQWHRKEHFEAFQSVAQCTYNQTVQLDITAFLKTVKKNKHKFYPAFIHILARLMNAHPEFRMAMKDGELVIWDSVHPCYTVFHEQTETFSSLWSEYHDDFRQFLHIYSQDVACYGENLAYFPKGFIENMFFVSANPWVSFTSFDLNVANMDNFFAPVFTMGKYYTQGDKVLMPLAIQVHHAVCDGFHVGRMLNELQQYCDEWQGGA
# notes: also called TrcHis-CAT; not shown: N-terminal TrcHis leader of the Invitrogen control construct
# Target: T1, amyloid-beta peptide (1-40), freshly prepared synthetic (UniProt P05067 672-711, 125I label when used as tracer; residue not stated)
# T1 construct: domain: amyloid-beta peptide (1-40)
# Experiment: radioligand binding to coated microtiter wells
binder,measurement,value
B1,binding result,no binding (tested: 100 nM)
